Test results taken from the supplement of paper PMC10567573.

B1: INTS4 (parent)
chain: IRLVDDAFGKICHMVSDGSWVVRV

Variants of: B1
Assay: protein stability index of a GFP-peptide fusion (GPS, HEK-293T) (PSI 1-6); higher = more stable
Conditions: c terminus: a fixed tail appended
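Also: lentivirally expressed fusions sorted by FACS into six bins by GFP to DsRed ratio, PSI derived from sequencing read proportions per bin multiplied by bin number.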

In order of falling protein stability index:
1. IRLVDNAFGKICHMVSDGSWVVRV [D6N]  4.84
2. IRLVDDAFGKICHMVSDGSWVTRV [V22T]  4.7
3. IRLVDDAFGKICHMVSDPSWVVRV [G18P]  4.4
4. IRLVFDAFGKICHMVSDGSWVVRV [D5F]  4.33
5. IRLMDDAFGKICHMVSDGSWVVRV [V4M]  4.21
6. IRLVDDAFGKICHMVSDGSWVYRV [V22Y]  4.15
7. IRLVDQAFGKICHMVSDGSWVVRV [D6Q]  4.08
8. FRLVDDAFGKICHMVSDGSWVVRV [I1F]  4.01
9. IRLVDDAFGKICHMVSDGSWVVRT [V24T]  4
10. IRLVDEAFGKICHMVSDGSWVVRV [D6E]  3.96
11. IRLVDDASGKICHMVSDGSWVVRV [F8S]  3.94
12. QRLVDDAFGKICHMVSDGSWVVRV [I1Q]  3.89
13. IRLVDDAEGKICHMVSDGSWVVRV [F8E]  3.82
14. IRLVYDAFGKICHMVSDGSWVVRV [D5Y]  3.78
15. IRLVDDLFGKICHMVSDGSWVVRV [A7L]  3.62
16. IRLVDDAFGKICHMVSDGSWVDRV [V22D]  3.6
17. NRLVDDAFGKICHMVSDGSWVVRV [I1N]  3.6
18. IRLVDDAFGKICHMVSDGSWVFRV [V22F]  3.53
19. KRLVDDAFGKICHMVSDGSWVVRV [I1K]  3.49
20. IRIVDDAFGKICHMVSDGSWVVRV [L3I]  3.47
21. IRLVDDAFGKHCHMVSDGSWVVRV [I11H]  3.47
22. IRLVDDAFGKICHMVSDGSWVVRY [V24Y]  3.37
23. IRLVDDAFGKICHMVSDGSWVCRV [V22C]  3.31
24. MRLVDDAFGKICHMVSDGSWVVRV [I1M]  3.29
25. IRLVDDAFGKICHMVSDGSWVRRV [V22R]  3.28
26. IRLVDDAFGKICHMVSDGSWVIRV [V22I]  3.27
27. IRLVDDAFGKICHMVSDKSWVVRV [G18K]  3.25
28. IRLVTDAFGKICHMVSDGSWVVRV [D5T]  3.23
29. IRLKDDAFGKICHMVSDGSWVVRV [V4K]  3.23
30. IRLVLDAFGKICHMVSDGSWVVRV [D5L]  3.22
31. IRLVDDAFGKICHMVSDGSWVVRP [V24P]  3.21
32. IRLVDDAFGKICHMVLDGSWVVRV [S16L]  3.17
33. IRLVDDAFGKICHMVSDISWVVRV [G18I]  3.15
34. IREVDDAFGKICHMVSDGSWVVRV [L3E]  3.14
35. IRLVDDAFGKVCHMVSDGSWVVRV [I11V]  3.14
36. IRLVDDAFGKICHMVSDGSWVVRI [V24I]  3.12
37. IRAVDDAFGKICHMVSDGSWVVRV [L3A]  3.09
38. IRLVCDAFGKICHMVSDGSWVVRV [D5C]  3.07
39. IRLVDDAFGKICHMVSDGSWVVRR [V24R]  3.03
40. IRLVDDAFGKICHMVSDGSWVKRV [V22K]  3.02
41. IRLVKDAFGKICHMVSDGSWVVRV [D5K]  3.01
42. IRLVDDGFGKICHMVSDGSWVVRV [A7G]  2.95
43. IRLVDDAFGKICHMVSDRSWVVRV [G18R]  2.9
44. YRLVDDAFGKICHMVSDGSWVVRV [I1Y]  2.87
45. IRLVDDAFGKSCHMVSDGSWVVRV [I11S]  2.87
46. IRLVDDAFGKCCHMVSDGSWVVRV [I11C]  2.87
47. IRLVDDAFGKICHMVSDGSWVVRH [V24H]  2.79
48. IRLVDDAIGKICHMVSDGSWVVRV [F8I]  2.78
49. ERLVDDAFGKICHMVSDGSWVVRV [I1E]  2.77
50. IRLVADAFGKICHMVSDGSWVVRV [D5A]  2.73
51. IRLVDDAMGKICHMVSDGSWVVRV [F8M]  2.69
52. IRLVDDAFGKICHMVSDGSWVVRC [V24C]  2.68
53. ARLVDDAFGKICHMVSDGSWVVRV [I1A]  2.67
54. IRLVIDAFGKICHMVSDGSWVVRV [D5I]  2.67
55. IRLVDDAFGKQCHMVSDGSWVVRV [I11Q]  2.63
56. IRLVDDACGKICHMVSDGSWVVRV [F8C]  2.59
57. IRLPDDAFGKICHMVSDGSWVVRV [V4P]  2.57
58. IRLVDDAFGKICHMVSDESWVVRV [G18E]  2.57
59. IRLVDDAFGKICHMVSDGSWVERV [V22E]  2.56
60. IRLVDDAFGKICHMVRDGSWVVRV [S16R]  2.56
61. IRLVDDAFGKICHMVCDGSWVVRV [S16C]  2.56
62. IRLVDDAPGKICHMVSDGSWVVRV [F8P]  2.54
63. IRLVPDAFGKICHMVSDGSWVVRV [D5P]  2.53
64. IRLVDDAFGKICHMVNDGSWVVRV [S16N]  2.52
65. IRLVDDAQGKICHMVSDGSWVVRV [F8Q]  2.5
66. IRLYDDAFGKICHMVSDGSWVVRV [V4Y]  2.46
67. IRLVDDAYGKICHMVSDGSWVVRV [F8Y]  2.45
68. IRLVDVAFGKICHMVSDGSWVVRV [D6V]  2.35
69. IRLVVDAFGKICHMVSDGSWVVRV [D5V]  2.32
70. IRLVDDAFGKICHMVSDGSWVVRS [V24S]  2.31
71. IRLVDDAKGKICHMVSDGSWVVRV [F8K]  2.31
72. IRLVDDAFGKICHMVEDGSWVVRV [S16E]  2.31
73. IRLVSDAFGKICHMVSDGSWVVRV [D5S]  2.3
74. IRLVDDAFGKICHMVSDFSWVVRV [G18F]  2.29
75. IRLFDDAFGKICHMVSDGSWVVRV [V4F]  2.26
76. IRLVDDFFGKICHMVSDGSWVVRV [A7F]  2.22
77. IRLVDRAFGKICHMVSDGSWVVRV [D6R]  2.21
78. IRLVDDAHGKICHMVSDGSWVVRV [F8H]  2.19
79. IRHVDDAFGKICHMVSDGSWVVRV [L3H]  2.17
80. IRLCDDAFGKICHMVSDGSWVVRV [V4C]  2.16
81. IRLVDDAFGKICHMVFDGSWVVRV [S16F]  2.14
82. IRLVDDKFGKICHMVSDGSWVVRV [A7K]  2.09
83. IRRVDDAFGKICHMVSDGSWVVRV [L3R]  2.08
84. IRLVDDAFGKICHMVSDGSWVVRQ [V24Q]  2.04
85. IRLVDDAFGKICHMVSDNSWVVRV [G18N]  2.01
86. IRLVDLAFGKICHMVSDGSWVVRV [D6L]  1.98
87. IRLVDDAFGKICHMVWDGSWVVRV [S16W]  1.91
88. IRLVRDAFGKICHMVSDGSWVVRV [D5R]  1.8
89. IRLVDDAFGKICHMVSDMSWVVRV [G18M]  1.8
90. IRLVDDAFGKICHMVSDYSWVVRV [G18Y]  1.62
91. IRLVDDAFGKICHMVSDGSWVVRW [V24W]  1.57
92. IRLVDDAFGKICHMVSDGSWVVRM [V24M]  1.46
93. IRLNDDAFGKICHMVSDGSWVVRV [V4N]  1.36
94. IRLVDDAFGKICHMVDDGSWVVRV [S16D]  1.29
